In the supplement of paper PMC10567573:

B1: INTS3 (parent)
chain: FHPIKETVVEEPVDITPYLDQLDE
B2: KCNAB2 (parent)
chain: SSIIHEIDSILGNKPYSKKDYRS

Variants of: B1
Assay: protein stability index of a GFP-peptide fusion (GPS, HEK-293T) (PSI 1-6); higher = more stable
Details: c terminus: a fixed tail appended
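Note: lentivirally expressed fusions sorted by FACS into six bins by GFP to DsRed ratio, PSI derived from sequencing read proportions per bin multiplied by bin number.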

Protein stability index, by site and new letter:
P17: G 3.46; S 3.12; W 3.61; A 3.25
K5: H 4.67; M 4.24; P 4.29; W 2.15
T16: Q 3.79; Y 2.77; W 2.33; H 2.79; E 3.75
H2: W 4.2; N 5.18; E 5.26; P 5.03
D14: F 1.93; V 2.73; H 3.11; W 1.63
Y18: P 3.23; K 3.77; F 3.79; A 3.58; D 3.43
T7: W 2.89; A 3.73; Q 3.26
P12: S 3.31; H 3.29; M 2.65; F 3.65; A 2.99; D 3.52
P3: L 3.14; Y 2.75; G 4.49; M 2.9; K 4.82
L22: W 2.73; H 3.5; S 3.13; K 3.7
I15: P 3.53; S 2.92; Q 3.79; C 3.49; F 2.4; W 2.39; T 4.26
E11: K 3.02; F 1.92; T 2.54; H 2.87; A 2.73; S 2.81; Y 2.51
D23: L 2.21; F 2.28; K 2.39; T 3.08; Q 3.02; H 2.66; E 3.29; R 2.63
I4: K 3.08; W 2.87; D 4.08; M 4.2; Y 2.77; A 2.98; P 2.96; H 4.1
V13: S 3.67; T 3.8; M 3; P 2.43; L 3.22; H 3.32; R 2.58
D20: N 2.94; Q 2.41; L 2.28; I 2.35
E6: A 2.42; R 1.98; F 1.53; M 2; W 1.91; N 2.67; D 3.77; H 2.01; S 2.52
F1: H 5.5; C 5.32; G 5.5; T 5.54; W 4.97; Q 5.65; S 5.58; E 5.2
E10: D 3.24; M 2.16; T 2.56; V 2.12; G 2.8; F 1.54; S 2.54
V8: N 3.59; D 3.9; Q 4.21; I 2.88; F 2.73; H 3.19; R 3.03
L19: Y 3.2; E 4.34; M 2.86; P 3.88; S 3.98; R 3.14; D 3.24
Q21: T 3.19; M 3.42; K 3.05; H 3.26; I 3.26
V9: L 3.19; E 4.25; D 3.62; T 3.22; M 3.69; H 3.05; K 3.3; F 2.65
E24: C 2.77; A 2.58; F 1.93; P 2.63; Q 2.7; Y 2.47

Variants of: B2
Assay: as above
Details: c terminus: native

Protein stability index, by site and new letter:
S2: F 2.4; E 4.02; H 2.31; G 3.2; D 3.81; C 2.22; A 2.89
S1: P 3.28; H 2.46; G 3.04; L 2.13; Y 1.59; N 3.97; T 2.6; R 2.78; M 1.8; V 2.34; D 3.67; A 2.43; E 2.82; K 3.55; I 2.67; F 2.06; Q 2.94; C 2.47
